# Assay: soluble on expression in E. coli; label from the status in PepcDB or PDB records
row,Sequence,soluble on expression in E. coli
1,MGHHHHHHSHMLLAASKVLDRLKPVIGVNTDPERSEGHLCLPVRYTHSFPEALQKFYRGEFRWLWRQRIRLYLEGTGINPVPVDLHEQQLSLNQHNRALNIERAHDERSEASGPQLLPVRALNEVFIGESLSSRASYYEISVDDGPWEKQKSSGLNLCTGTGSKAWSFNINRVATQAVEDVLNIAKRQGNLSLPLNRELVEKVTNEYNESLLYSPEEPKILFSIREPIANRVFSSSRQRCFSSKVCVRSRCWDACMVVDGGTSFEFNDGAIASMMINKEDELRTVLLEQ,not soluble
2,MTARARSALLDAEHIVGYTTYVELLPDEITEGADDIYNTPMCGEVSRTEEAIDRALAGNDVAIIGSGDPNVYALAGLALEIIESKGATATMLDFDVVPGVP,not soluble
3,QKGRVETRRVVHIMDFQRGKNLRYQLLQLVEPFGVISNHLILNKINEAFIEMATTEDAQAAVDYYTTTPALVFGKPVRVHLSQKYKRIK,soluble
4,MGSDKIHHHHHHMVGIILASHGEFAEGILQSGAMIFGEQENVKAVTLMPSEGPDDVKAKMQEAIASFDNQDEVLFLVDLWGGTPFNQANSLLEDHKDKWAIVAGMNLPMVIEAYASRFSMESAQEIATHILETAKDGVKVKPEELQPAEAPKAAATEDAQPKGSLPPGTVVGDGKIKFVLARIDSRLLHGQVATAWTKATQPNRIIVVSDAVAKDDLRKKLIEQAAPPGVKANVIPISKMIEVAKDPRFGNTKALLLFENPEDVLKVVEGGVEIPEVNVGSMAHSVGKVVVSKVLSMGQEDVDTFDELKAKGIKFDVRKVPNDSKANMDEILKKAKNELANA,not soluble
5,MSLSPALSAPKPLRFPANPAPTALKQFALTLQSESYRYRTPMKFGGRVVEEVTVLTAQCTATNQAGQVADGDQIGIGSMTMGVAWAWPDASVADGTKLEVVLELASRMAAQVNEASGTLTGHPMEICLQLASQREDLVAAVAAGHDLTAPIPELAILLAASPIEAALFDAHGKAAGQSSYSLLSAEHLPPDLGEMTGDDRYAGLRLDQFISSSPVATLPLYHLVGALDPLTQDDLAEPVGDGLPETLGEWITRNELTHLKIKLNGDDADWDFRRVRDINTVANETTDRGSSTGKPWWFSLDFNERCEDEAYVLGLLDRLESECPEAFERIQYIEQPTHRDLKRPGAVTMHQAAARIPVVIDESLTGLESLHLAVSQGYSGIALKACKGHAEALLLGAIAVHENLFLCVQDLTCVGASLLHSASLSAHIPGVAAVESNGRQYCPEGNAEWMACFGPMFEVRGGSVPTSCLDGPGLGYEGHHHHHH,soluble
6,MGSDKIHHHHHHMASSSEGVSVLEIECKVVTPMFSRGAAEPKWENGNRVYPFELRPQSIKGVLRFWFRAIAPTVIDIYSLEGLENLSKKEKERWEKEKYKGLKYLEGLIFGSQERKSSFSLEVKVEGESQALGKYMNNRFSFTDDRLKDTKYALYGLYDKSGIYEYLQEGKNFIIILQTANDSIKGIILSLLKLVSTFSGFGAKTRKGFGEFEIVDPKLTRNDYNLVISECQEHIREFVNHHNSSSKVKIKLGRTNFNGIPDFPCFCDYKIFEITKFSGNSPLEVLREVFKVGRNFKGWYPSLKQKMRFSEGDCVKDLVEALEGLLKGRKTEKKIEIPTAVVGLPIQYQNLGRGEIRRLKVIVSSSLRGLGIDDIDGRKASPLFLSVHEGERGKWKLVVLLMRSRVTNDGELITEVKGGKTPSSGIKTIVKEEKDYKNLLEWIKKLGGKEIQGG,not soluble
7,MGHHHHHHSHMKGIMVQGTASDVGKSLICTALCRIFARRGYKVTPFKSQNMSNNSYITVEGLEIGRAQGIQAEAAMEEASVYMNPILLKPRNDREAEIVCFGQAVDTVSGVKYRDGFYKRGLEAIKQALATLSQSFDMVVIEGAGSPVEVNLNDRELVNMKVAELADVPVILVADIERGGVFASLYGTLELLQPNERKRVVGIIVNKFRGDPELFSSGVQWIEQHLGVPVLGVLPHLPGVRIEGEDSLSKGQVTSVLP,not soluble
8,MHHHHHHSSGVDLGTENLYFQSMENFNNFYILTSKELGRGKFAVVRQCISKSTGQEYAAKFLKKRRRGQDCRAEILHEIAVLELAKSCPRVINLHEVYENTSEIILILEYAAGGEIFSLCLPELAEMVSENDVIRLIKQILEGVYYLHQNNIVHLDLKPQNILLSSIYPLGDIKIVDFGMSRKIGHACELREIMGTPEYLAPEILNYDPITTATDMWNIGIIAYMLLTHTSPFVGEDNQETYLNISQVNVDYSEETFSSVSQLATDFIQSLLVKNPEKRPTAEICLSHSWLQQWDFENLFHPEETSSSSQTQDHSVRSSEDKTSKSS,soluble
9,MHSLYLGVVKVMAKIILVYANCVNSTAKGDFALAGQIAKDLVREKTSDDIDVVLTSTLDGIARFESLYGKAVDGRVIIEGTSVGLCALELFESVDNEVVAFIEANRCKYAPSDILKRVLSPDSKFLFIGAANQKAIATGDKFTKSWLYISHKGDQPNVYEHFDEDDSLIQSVGLGDDRLGLPSLPKVDELPEMNSTQSQKIPSGEYGFMYLAAVHGIDDVYLMNQYMSLTEMGQYVLVGEYAKQSKEVQMVLHSLQYKGSSVSLTMPQIFFHDSVDNCLMRNMVSKSSGPLVVSTGVMSSIEAMQDGKLTYYQTMSNNTQFVASYLIAVKSICSSDTTLFGSMPKLIIDLSNLLFAEKPLKESQMKEIKSLLGMSSVTSRLGEMNKRIIAKANGTVAGELLSFIGKPKTTQSHKQCISVCMSLRKSGETTSPIFDQALRRAAAWGRLFELKVLIASMSTSDLNKKDKTGNQYTALHWAVMQGHLDCARLLVKSGASVDIQDKSGKSPLHYAIKRGDKETIKLLVQAGASLEIMDDSGAKPCDGSESWVPEYIKSCYEKSGHKSSSLF,not soluble
10,MTPPADETRLFECVTCGGVGIGDNRPTCCGEPMAATETGDTAVSEPSLETLLKTVFDMSGTELDICLCVMEGGELTVAALAEQIGYDRSVVARHLNHLAAFGVVEKRRRIRPEGGHVYVYTPQPPEVVRERLREEFLSWVRLATAQLDDLQREKVEAIADAKTDERQWTVFQEQ,not soluble
11,MSLKALHFGAGNIGRGFIGKLLADAGIQLTFADVNQVVLDALNARHSYQVHVVGETEQVDTVSGVNAVSSIGDDVVDLIAQVDLVTTAVGPVVLERIAPAIAKGQVKRKEQGNESPLNIIACENMVRGTTQLKGHVMNALPEDAKAWVEEHVGFVDSAVDRIVPPSASATNDPLEVTVETFSEWIVDKTQFKGALPNIPGMELTDNLMAFVERKLFTLNTGHAITAYLGKLAGHQTIRDAILDEKIRAVVKGAMEESGAVLIKRYGFDADKHAAYIQKILGRFENPYLKDDVERVGRQPLRKLSAGDRLIKPLLGTLEYGLPHKNLIEGIAAAMHFRSEDDPQAQELAALIADKGPQAALAQISGLDANSEVVSEAVTAYKAMQEGGSHHHHHH,soluble
12,SDIAIHHPWIRRPFFPFHSPSRLFDQFFGEHLLESDLFPTSTSLSPFYLRPPSFLRAPSWFDTGLSEMRLEKDRFSVNLDVKHFSPEELKVKVLGDVIEVHGKHEERQDEHGFISREFHRKYRIPADVDPLTITSSLSSDGVLTVNGPRKQVSGPERTIPITREEKPAVTAAPKK,soluble
13,MSFNKEDQQDEALAFLLAVATVESGDAGAFRQRVTQYMTKAYGEDTSKMTMQEQGRAEAVSRLYARADNIYHRIKVNALPRLSRGF,not soluble
14,MGSDKIHHHHHHMPELTEFQKKRLENIKRNNDLLKKLHLSGVASQIKHEAGVLEKSRAPAKKKQKTTNTRATKSASPTLPTRRSRRLRGESADDVKGIPNVNDNQLLKMGSPDGQDKNFIDAIKEKPVIGDVKLSDLIKDEDESALLEKFKRFNNGNFSSGDFFEEIKKRQGDVTGMDEFDLDLYDVFQPNEIKITYERISATYFHPAMEKKLIIAGDTSGTVGFWNVRDEPLADSEEDRMEEPDITRVKLFTKNVGRIDCFPADTSKILLTSYDGSIRSVHLNNLQSEEVLTLKNEYDDSLGISDCQFSYENPNVLFLTTLGGEFTTFDTRVKKSEYNLRRLADKKIGSMAINPMRPYEIATGSLDRTLKIWDTRNLVKKPEWSQYEDYPSHEIVSTYDSRLSVSAVSYSPTDGTLVCNGYDDTIRLFDVKSRDHLSAKLEPKLTIQHNCQTGRWTSILKARFKPNKNVFAIANMKRAIDIYNSEGQQLAHLPTATVPAVISWHPLRNWIAGGNSSGKIFLFTDDSGTIKQEE,not soluble
15,AKGDPHVLLTTSAGNIELELDKQKAPVSVQNFVDYVNSGFYNNTTFHRVIPGFMIQGGGFTEQMQQKKPNPPIKNEADNGLRNTRGTIAMARTADKDSATSQFFINVADNAFLDHGQRDFGYAVFGKVVKGMDVADKISQVPTHDVGPYQNVPSKPVVILSATVLP,soluble
16,MGSDKIHHHHHHMLEKKARIADEAEIVDEAIVSRRSVRAFLPDMIDDDTIRDILEVAARAPSGTNMQPWRVYVTKGETKQQISDAILNSGIRAEKADWDEYRYYPTQFFEPYLTRRRANGFGLYGALGIGRREVDKMRAQHDRNFVFFDAPVGMIFTIDRRLNQGSWIDYGMFLQNIMVAARGRGLHTCPQAAFAPYHRQIRPVLNIPDEEIVVCGMALGYEDTSKPENAFRTDRVPLEEWVTFSE,not soluble
17,MDNPVKLDTPVSGWRAGDGSAANYRQVVNYPASSVNVAADQATTARIRGAIESQPKDRPATLVVNGVSMPLKVDADGSFDRPFAFPSGSNSVEVRNAAGQSRRVQFYHGGGGGEVPAKLRVLLSWDSDNTDLDLHLVTPDGDHVWYGNRSLANGATLDVDVTTGYGPEIIATPTPQKGPYLVYVNYFGGGYGSSEDGAEQAAQDLTTARITLVTEEGTPNEKQETFLVPMRKPGELTLVKRFSYPLEHHHHHH,soluble
18,MAHHHHHHMWCTRLCREEGLFRFLRNLFEVLDFVTERCRRCLDTSSCLLLLCASPLSSCSIGGPHTRGCFNEILHRLSRGAQQPAHRRQSATSSHPRTPWRLHRFNDERVCVWGGNPPPQSTTGRHRSLCTPFSLSHTPSTAWAPLLPADKHHMQASPVLAGAAVRRTATASVGSEPRTNLPFLINVVKKAQKSANTVVASTPALSSMSSTKEPPIQAAAFKPYPLLSPGEVKQAAGSSLLYKDDVCVLVNDAFPKSMVHCLVMPLDLRLQSLNALTKKDAPLLRHMLHVGDEYVRYLKTAVPHTYTARRFIAGFHALPSLPMLHMHVLSTDLDSPCLKNKKHYNSFATFFFLTGDRVLDDLERHGRVTLNQDVTRLRQMEEQDMKCLWCGTALPSVPAMKSHIQCCPQNKAVEKSS,not soluble
19,MKNKLLVLSLGALCVSQIWESNRASAVVSGEKNPYVSESLKLTNNKNKSRTVEEYKKSLDDLIWSFPNLDNERFDNPEYKEAMKKYQQRFMAEDEALKKFFSEEKKIKNGNTDNLDYLGLSHERYESVFNTLKKQSEEFLKEIEDIKKDNPELKDFNEEEQLKCDLELNKLENQILMLGKTFYQNYRDDVESLYSKLDLIMGYKDEERANKKAVNKRMLENKKEDLETIIDEFFSDIDKTRPNNIPVLEDEKQEEKNHKNMAQLKSDTEAAKSDESKRSKRSKRSLNTQNHKPASQEVSEQQKAEYDKRAEERKARFLDNQKIKKTPVVSLEYDFEHKQRIDNENDKKLVVSAPTKKPTSPTTYTETTTQVPMPTVERQTQQQIIYNAPKQLAGLNGESHDFTTTHQSPTTSNHTHNNVVEFEETSALPGRKSGSLVGISQIDSSHLTEREKRVIKREHVREAQKLVDNYKDTHSYKDRINAQQKVNTLSEGHQKRFNKQINKVYNGK,not soluble
20,VGVAVDRDELLGANAPPQGGSFRFYLDGERWEWSDSVARMHGYQPGEVIPTNEILLSHKHPDDQSQVAALFDKMIHAGEPFSSKHRIIDTDRRIHHVIVVGDRMLDENGQVIGTSGYYIDVTETLETDLREFNEALTEAVAGLEKSRAVIEQAKGALMLVYGISSERAFGILTWRSQETNIKLHTLAERFVGALAAEATLPASFRARFDHLLLTAHEYPDEQADHPA,not soluble

# Source: the DeepSol protein solubility set
